The source of these data is paper PMC2172279.

Holding throughout (test): co-sedimentation
Experiment [1] has as its target dFull heavy chain (expressed full-length murine myosin V) (murine).
Experiment [2] deals with dHMM heavy chain (dilute heavy meromyosin: six IQ motifs followed by a coiled-coil tail) (murine) (UniProt Q99104).
Experiment [3] deals with MD2IQ heavy chain (murine myosin V motor domain and the first two IQ motifs) (murine) (UniProt Q99104).

Regarding “wild-type calmodulin (WT-CaM) (from UniProt P0DP33 1-149) (natural protein)”, the mol CaM dissociated per mol HC in calcium (mol CaM per mol HC) in experiment [1] was determined as 1.7; in experiment [2], 1.5; in experiment [3], 0.5.
